Experiment [1] has as its target JAM-A C-terminal 10mer peptide, N-terminally FITC-conjugated. Put plainly: fluorescence polarisation. For orientation: In fluorescence polarisation assays a small probe gives low polarisation when free and higher when bound to something large.
For experiment [2], the target named is nectin-1 C-terminal 10mer peptide, N-terminally FITC-conjugated. Put plainly: fluorescence polarisation.
Experiment [3] concerns the target nectin-1 C-terminal 10mer peptide, N-terminally biotinylated. Put plainly: BLI. (In general: Biolayer interferometry detects binding as a change in optical thickness at a sensor tip.)
Experiment [4] deals with JAM-A C-terminal 10mer peptide, N-terminally biotinylated. Put plainly: BLI.

B1: human afadin PDZ domain (domain or fragment)
chain: IITVTLKKQNGMGLSIVAAKGAGQDKLGIYVKSVVKGGAADVDGRLAAGDQLLSVDGRSLVGLSQERAAELMTRTSSVVTLEVAKQG
The term Kd denotes the constant that tells how readily two partners part at equilibrium. A lower Kd goes with a tighter complex. Consider B1, for which the Kd in experiment [1] was found to be 5 µM; in experiment [2], 3 µM; in experiment [3] it was 3 µM; in experiment [4] it was 5 µM. Also, the bond lifetime was 1.2 s in experiment [3] and 0.65 s in experiment [4].
